From paper PMC4876437, “Novel application of hydrophobin in medical science: a drug carrier for improving serum stability” (Scientific Reports, 2016)

Tests used:
[1] = biological target: hydrophobin E24K (mutated at the 24th residue)
[2] = biological target: wild-type hydrophobin protein (HGFI)
[3] = Stabilization (serum stability / pharmacokinetic) study: circulating free GLP-1 in rats by GLP-1 (7-37) ELISA; format: in vivo; details: Wistar rats, s.c., 500 μg GLP-1/kg, n = 6 per group
Experimental: The stabilities of wild-type hydrophobin/GLP-1 and hydrophobin E24K/GLP-1 complexes were investigated to determine whether the complex protects GLP-1 against protease degradation. Two complexes, hydrophobin/GLP-1 (pH 7.0, molar ratio of 1:10) and hydrophobin E24K/GLP (pH 4.0, molar ratio of 1:10) were administered subcutaneously to male Wistar rats (500 μg GLP-1/kg body weight, n = 6 per group), and blood samples from the rats were directly drawn into P700*, K2EDTA tubes (BD Biosciences, Franklin Lakes, NJ) by venipuncture at 0.5, 1, 4, 12, 24, 48, 72 and 96 h. Serum samples (200 μl) were immediately analyzed using a native GLP-1 (7-37) ELISA kit after being centrifuged for 20 min at 13,000 rpm. The amount of free GLP-1 measured in this assay was considered an indicator of the serum serum stability of the complex.

[4] = test system: insulin secretion; assay: Insulin stimulation assay after oral glucose administration; format: in vivo; details: Wistar rats, s.c. 100 μg GLP-1/kg 30 min before oral glucose 10 g/kg, n = 3 per group, mean ± SE
Experimental: The insulin secretion assay was performed by injecting the complex (100 μg GLP-1/kg body weight) into male Wistar rats (n = 3 per group). Wild-type GLP-1 (100 μg/kg body weight) and saline were injected subcutaneously as controls. Glucose (10 g/kg body weight, a standard dose for oral glucose administration) was orally administered 30 min after injections of the complexes. […] Blood samples were assayed for insulin levels using a rat insulin RIA kit.

[5] = test system: INS-1 cells; assay: cAMP accumulation measurement (HTRF); format: cell-based, rat
Experimental: For the cAMP assay, INS-1 cells (1.0 × 10^5 cells) were seeded and plated in each well of a 96-well opaque white plate. […] Subsequently, 10 μg of GLP-1 or complex was added. The assay plate was treated with 2.5 μl/well cAMP and an equal volume of anti-cAMP conjugate (Cisbio) after a 1 h incubation. The homogenous time-resolved fluorescence (HTRF) signal was read on a SpectraMax M5 (Molecular Device) microplate reader. The ratio of […] at 665 nm and 620 nm (×10,000) was calculated and plotted.

[6] = test system: blood glucose; assay: Single-dose glucoregulatory assay (glucose tolerance test); format: in vivo; details: Wistar rats, GLP-1 alone, glucose 2 g/kg i.p.
[7] = test system: blood glucose and HbA1c; assay: Long-term anti-diabetic activity (glucose, HbA1c) over 46 days; format: in vivo; details: ZDF rats, 250 μg/kg body weight every three days, glucometer
Experimental: Male ZDF rats (n = 11 per group) were treated with complex (250 μg/kg/3 days) for the entire experimental period (46 days). The control groups were injected with wild-type GLP-1 (250 μg/3 days). HbA1c levels were assessed using a DCA 200 analyzer (Bayer Diagnostics), and glucose levels were monitored during the experimental period.

[8] = test system: dipeptidyl peptidase IV (DPP-IV); details: cited from earlier work
Excerpt: The extremely poor serum stability renders the therapeutic administration of GLP-1 impractical; therefore, many efforts have focused on altering the pharmacokinetic properties of GLP-1 by developing a series of complexes and analogs, such as exenatide, liraglutide and albiglutide. […] In ad ...

Substance	AUC of free GLP-1 in the serum of Wistar rats within 96 h after subcutaneous injection of the complex, fold over GLP-1 alone (GLP-1 (7-37) ELISA) [1]	AUC of free GLP-1 in the serum of Wistar rats within 96 h after subcutaneous injection of the complex, fold over GLP-1 alone (GLP-1 (7-37) ELISA) [2]	time after administration at which circulating GLP-1 was undetectable [3]	insulin level at 5 min after oral glucose [4]	peak cellular cAMP level ([5]; INS-1 cells 1.0 × 10^5, 500 μM IBMX, 10 μg GLP-1, at 2 min, HTRF, mean ± SE)	time at which cAMP declined to baseline ([5]; INS-1 cells, HTRF-cAMP kit)	time of cAMP peak ([5]; INS-1 cells, HTRF-cAMP kit)	blood glucose in single-dose glucose tolerance test [6]	long-lasting glucose regulatory effect [7]	renal clearance (time) ([8]; in vivo)	lifetime in vivo ([8]; native GLP-1, in vivo, inactivation by DPP-IV)	serum stability of GLP-1 ([8]; rapid degradation by DPP-IV)
glucagon-like peptide-1 (GLP-1)	3 fold	6.3 fold										
glucagon-like peptide-1 [GLP-1]			4 h	827.09 ± 37.77 pmol/L	17.03 ± 0.94 pmol/10^5 cells	10 min	2 min	remained at high levels	failed to produce a similar glucose regulatory effect	less than 10 min	< 2 min	3 to 5 min
